Laboratory results as given in US20180044415A1 (AbbVie / Abbott, published 2018).

Experiments:
[1] = target: T1, DLL3 extracellular domain (amino acids 27-466) displayed on yeast (human, UniProt Q9NYJ7 27-466); assay: fine epitope mapping
T1 construct: Yeast surface display construct with HA tag; also called DLL3 ECD; wild type DLL3 ECD
T1 sequence: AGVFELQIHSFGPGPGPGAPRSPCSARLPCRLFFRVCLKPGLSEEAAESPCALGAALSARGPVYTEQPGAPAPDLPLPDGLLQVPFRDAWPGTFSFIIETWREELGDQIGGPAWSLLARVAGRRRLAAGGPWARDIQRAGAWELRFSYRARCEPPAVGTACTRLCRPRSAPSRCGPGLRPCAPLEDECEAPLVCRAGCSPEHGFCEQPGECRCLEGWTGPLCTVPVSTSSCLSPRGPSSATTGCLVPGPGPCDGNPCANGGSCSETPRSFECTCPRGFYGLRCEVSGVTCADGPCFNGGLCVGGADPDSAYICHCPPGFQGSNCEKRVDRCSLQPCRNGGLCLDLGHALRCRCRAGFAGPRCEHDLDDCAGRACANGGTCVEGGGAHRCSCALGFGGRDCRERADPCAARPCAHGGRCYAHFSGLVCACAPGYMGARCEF
Description: To test for binding to a particular construct, 200,000 induced yeast cells expressing the desired construct were washed twice in PBS+1 mg/mL BSA (PBSA), and incubated in 50 μL of PBSA with biotinylated anti-HA clone 3F10 (Roche Diagnostics) at 0.1 μg/mL and either 50 nM purified antibody or 1:2 dilution of unpurified supernatant from hybridomas cultured for 7 days. Cells were incubated for 90 minutes on ice, followed by two washes in PBSA. Cells were then incubated in 50 μL PBSA with the appropriate secondary antibodies: for murine antibodies, Alexa 488 conjugated streptavidin, and Alexa 647 conjugated goat anti mouse (Life Technologies) were added at 1 μg/mL each; and for humanized or chimeric antibodies, Alexa 647 conjugated streptavidin (Life Technologies) and R-phycoerythrin conjugated goat anti human (Jackson Immunoresearch) were added at 1 μg/mL each. After a twenty minute incubation on ice, cells were washed twice with PBSA and analyzed on a FACS Canto II. Antibodies that bound to DLL3-DLL1 chimera were designated as binding to the N-terminal region+DSL. Antibodies that bound specifically to an epitope present on a particular EGF-like domain were designated as binding to its respective domain (FIG. 2.)
Alternatively, a yeast display method (Chao et al., 2007, PMID: 17406305) was used to map the epitopes of selected antibodies. Libraries of DLL3 ECD mutants were generated with error prone PCR using nucleotide analogues 8-oxo-2′deoxyguanosine-5′-triphosphate and 2′-deoxy-p-nucleoside-5′triphosphate (TriLink Bio) for a target mutagenesis rate of one amino acid mutation per clone. These were transformed into a yeast display format. Using the technique described above for domain-level mapping, the library was stained for HA and antibody binding at 50 nM. […] These clones were re-grown, and subjected to another round of FACS sorting for loss of binding to the target antibody. Using the Zymoprep Yeast Plasmid Miniprep kit (Zymo Research), individual ECD clones were isolated and sequenced. […]

[2] = target: T2, human DLL3 (immobilized human DLL3 or h293-hDLL3 cells) (human, UniProt Q9NYJ7 27-492, limits assumed); assay: hybridoma screening on immobilized human DLL3 or on h293-hDLL3 cells
T2 construct: the sentence says 'immobilized human DLL3 or h293-hDLL3 cells'
T2 sequence: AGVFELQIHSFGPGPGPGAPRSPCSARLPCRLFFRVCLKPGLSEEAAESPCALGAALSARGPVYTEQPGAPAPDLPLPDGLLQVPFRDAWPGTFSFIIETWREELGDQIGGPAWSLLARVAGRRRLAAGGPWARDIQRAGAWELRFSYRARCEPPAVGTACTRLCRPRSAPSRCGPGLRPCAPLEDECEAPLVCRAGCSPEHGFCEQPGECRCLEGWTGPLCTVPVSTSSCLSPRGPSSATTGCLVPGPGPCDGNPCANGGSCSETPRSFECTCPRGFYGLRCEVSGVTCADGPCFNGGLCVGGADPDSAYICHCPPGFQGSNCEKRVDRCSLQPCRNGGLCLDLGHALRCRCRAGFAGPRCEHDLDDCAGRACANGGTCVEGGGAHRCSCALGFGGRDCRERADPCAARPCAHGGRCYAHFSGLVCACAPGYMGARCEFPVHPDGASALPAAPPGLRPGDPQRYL

B1: SC16.23 (antibody, V domains shown)
VH: QVTLKESGPGILQPSQTLSLTCSFSGFSLSTSNTGIGWIRQPSGTGLEWLAHIWWNDDKYYNPSLKSRLTISKETSNNQVFLKITNVDTADTASYFCVQIGRDYSNYAWYFDVWGAGTTVTVSS
VL: QIVLTQSPAIMSASPGEKVTLTCSASSSVSSRYLYWYQQKPGSSPKLWIYSTSNLASGVPARFSGSGSGTSYSLIISSMEAEDAASYFCHQWSNYPLTFGAGTKLELK
notes: murine mAb; variable regions only
Q: Which results are given for B1?
A: binding result [1]: binds; binding result [2]: binds

B2: SC16.34 (antibody, V domains shown)
VH: QIQLVQSGPELKRPGETVKISCKASGYTFTNYGMNWVKQAPGKGLKWMGWINTYTGDPTYADDFKGRFAFSLETSASTAYLQINNLKNEDTATYFCARIGGNSPSDYWGQGTSLTVSS
VL: SIVMTQTPKFLLVSAGDRVTITCKASQSVSNDVAWYQQKPGQSPKLLIYYASNRYSGVPDRFTGSGYGTDFTFTISTVQAEDLAVYFCQQDYSSPWTFGGGTKLEIK
notes: as for B1
Q: Does B2 bind [1]?
A: Result: binds

Q: Does B2 bind [2]?
A: Result: binds

B3: SC16.56 (antibody, V domains shown)
VH: QIQLVQSGPELKKPGETVKISCKASGYTFTNYGMNWVKQAPGKGLKWMAWINTYTGEPTYADDFKGRFAFSLETSASTASLQIINLKNEDTATYFCARIGDSSPSDYWGQGTTLTVSS
VL: SIVMTQTPKFLLVSAGDRVTITCKASQSVSNDVVWYQQKPGQSPKLLIYYASNRYTGVPDRFAGSGYGTDFSFTISTVQAEDLAVYFCQQDYTSPWTFGGGTKLEIR
notes: as for B1
Q: Does B3 bind [1]?
A: Result: binds

Q: Does B3 bind [2]?
A: Result: binds

B4: SC16.141 (antibody, V domains shown)
VH: QVQLKQSGPGLVAPSQSLFITCTVSGFSLTSYEINWVRQPPGKGLEWLGVIWTGGSTNYNSALISRLSISKDNSKSLVFLKMNSLQTDDTAIYYCVRGVYAMDYWGQGTSVTVSS
VL: DIKMTQSPSSMYASLGERVTITCKASQDINSYLSWFQQKPGKSPKTLIYRANRLVDGVPSRFSGSGSGQDYSLTISSLEYEDMGIYYCLQYDEFPFTFGSGTKLEIK
notes: as for B1
Q: Does B4 bind [2]?
A: Result: binds
